Molecular target: R28A-HD5 (human)
Assay: crystal structure

Work on R28A-HD5 (peptide) yielded a stoichiometry N of 2.
